What is called Kd is the constant that tells how readily two partners part at equilibrium. A low value points to higher affinity. The term koff denotes the rate constant with which the complex falls apart. Low values mean slow dissociation, high ones fast dissociation. Broadly, the kon is a measure of how fast the partners come together. A lower kon goes with slower complex formation.

Experimental findings from patent publication US20260209325A1 (SCHOLAR ROCK, published 2026) are described below.

Changes are numbered by the printed parent chain.

The chains are these.
B1: Ab123 (antibody, human IgG4 S228P, kappa, V domains shown)
VH: EVQLVESGGGLVQPGGSLRLSCAASGFTFSKYDMSWVRQAPGKGLELVASISSSGGTRYYPDSVKGRFTISRDNAKNSLYLQMNSLRAEDTAVYYCAKDLWVASPGYGMDVWGQGTTVTVSS
VL: DIVMTQSPLSLPVTPGEPASISCRSSQSLLHSSGHNYLHWYLQKPGQSPQLLIYLGSIRAPGVPDRFSGSGSGTDFTLKISRVEAEDVGVYYCMQALLNPPTFGGGTKVEIKR
B2: Ab112 (antibody, human IgG4 S228P, kappa, V domains shown)
VH: QVQLVQSGAEVKKPGASVKVSCKVSGGTFGIYAIHWVRQAPGKGLEWMGGTIPVFGTAIYAQKFQGRVTMTEDTSTDTAYMELSSLKSEDTAVYYCASLTGIAAAGTHPARGGMDVWGQGTTVTVSS
VL: DIQMTQSPSSVSASVGDRVTITCRASPSISSYLAWYQQKPGKAPKLLIYAASRLQSGVPSRFSGSGSGTDFTLTISSLQPEDFANYYCQEYLSFPLTFGGGTKVEIKR
B3: Ab141 (antibody, human IgG4 S228P, kappa, V domains shown)
VH: EVQLVESGGGLVQPGGSLRLSCAASGFTFSSYGMSWVRQAPGKGLELVASFTGSGGAYYPDSVKGRFTISRDNAKNSLYLQMNSLRAEDTAVYYCARDLLIRFLEWSHYYGMDVWGQGTTVTVSS
VL: DIVMTQSPLSLPVTPGEPASISCRSSQSLLHSSGHNFLHWYLQKPGQSPQLLIYEVSNRVSGVPDRFSGSGSGTDFTLKISRVEAEDVGVYYCMQQTQYPGTFGGGTKVEIKR
B4: Ab140 (antibody, human IgG4 S228P, kappa, V domains shown)
VH: B3 VH with A57T, L99N
VL: B3 VL with V60E, M94Q, G101P
B5: Ab138 (antibody, human IgG4 S228P, kappa, V domains shown)
VH: EVQLVESGGGLVQPGGSLRLSCAASGFTFTSYGMSWVRQAPGKGLELVASITGSKGETYYPDSVKGRFTISRDNAKNSLYLQMNSLRAEDTAVYYCARDLLVRFLEWSHYYGMDVWGQGTTVTVSS
VL: B3 VL with V56T, V60A, S61P, V63I, M94Q, Q96A, Y99F, G101R, T102P
B6: Ab139 (antibody, human IgG4 S228P, kappa, V domains shown)
VH: B3 VH with G56A
VL: B3 VL with V56S, M94Q, G101P
B7: Ab102 Fab (Fab, V domains shown)
VH: B5 VH with K55G
VL: DIVMTQSPLSLPVTPGEPASISCRSSQSLLHSSGHNFLHWYLQKPGQSPQLLIYETSNRAPGIPDRFSGSGSGTDFTLKISRVEAEDVGVYYCMQATQFPRPFGGGTKVEIK
B8: Ab130 Fab (Fab, V domains shown)
VH: B5 VH with K55G
VL: B7 VL with M94Q
notes: Fab of Ab130
B9: Ab123 Fab (Fab, V domains shown)
VH: B1 VH
VL: B1 VL
notes: Fab of Ab123; also called Ab123 Fab fragment
B10: Ab105 Fab (Fab, V domains shown)
VH: B3 VH with F27S, T28A, F51I, T52G, S54T, G56A, A57T, I101V, S107G
VL: DIVMTQSPLSLPVTPGEPASISCRSSQSLLHSSGYNFLHWYLQKPGQSPQLLIYAASSRAPGIPDRFSGSGSGTDFTLKISRVEAEDVGVYYCMHGGQGPTFGGGTKVEIK
notes: Fab of Ab105
B11: Fab fragment of Ab109 (Fab, V domains shown)
VH: B3 VH with A57T
VL: B7 VL with T56V, A60V, P61S, I63V, A96Q, F99Y, R101P, P102T
notes: Fab of Ab109 (molecular weight 49.25 kDa); also called Ab109 Fab
B12: Ab141 Fab (Fab, V domains shown)
VH: B3 VH
VL: B7 VL with T56V, A60V, P61S, I63V, A96Q, F99Y, R101G, P102T
notes: Fab of Ab141
B13: Ab133 Fab (Fab, V domains shown)
VH: B3 VH
VL: B7 VL with T56V, A60V, P61S, I63V, M94Q, A96Q, F99Y, R101G, P102T
notes: Fab of Ab133
B14: Ab132 Fab (Fab, V domains shown)
VH: B3 VH with A57T
VL: B7 VL with T56V, A60V, P61S, I63V, M94Q, A96Q, F99Y, R101P, P102T
notes: Fab of Ab132
B15: Ab131 Fab (Fab, V domains shown)
VH: B3 VH with F27S, T28A, F51I, T52G, S54T, G56A, A57T, I101V, S107G
VL: B10 VL with M94Q
notes: Fab of Ab131
B16: Ab112 Fab (Fab, V domains shown)
VH: B2 VH
VL: DIQMTQSPSSVSASVGDRVTITCRASPSISSYLAWYQQKPGKAPKLLIYAASRLQSGVPSRFSGSGSGTDFTLTISSLQPEDFANYYCQEYLSFPLTFGGGTKVEIK
notes: Fab of Ab112; also called Ab112 Fab fragment
B17: Ab137 (antibody, human IgG4 S228P, kappa, V domains shown)
VH: B3 VH with A57T, S107G
VL: B3 VL with G101P

Chain of mouse GDF-11 (Q9Z1W4 297-405 limits assumed): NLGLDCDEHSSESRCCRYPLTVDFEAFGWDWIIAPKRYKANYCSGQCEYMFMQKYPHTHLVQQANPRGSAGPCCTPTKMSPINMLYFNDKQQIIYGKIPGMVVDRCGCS
Chain of human GDF-11 (O95390 299-407 limits assumed): as the sequence (Q9Z1W4 297-405 limits assumed) above

The target in one assay is T1, human pro-myostatin (human, UniProt O14793 24-375, biotinylated (in the SPR assay)). Description: cell-based or functional assay.
On to B1, for which the “IC50 (nM) Pro + Furin” value stood at 0.184 nM.

Regarding B2, the “IC50 (nM) Pro + Furin” value came to 1.08 nM.

In a further assay the target is T2, recombinant human latent myostatin (human, UniProt O14793 24-375, biotinylated (in the Octet pH assay only)). The assay can be described thus: cell-based or functional assay.
For the molecule B1, the “IC50 (nM) Latent + mTLL2” value came out at 0.139 nM.

With B3, the “IC50 (nM) Latent + mTLL2” value is 0.139 nM.

As to B2, the “IC50 (nM) Latent + mTLL2” value worked out at 9.22 nM.

The target in the next assay is T2, recombinant human latent myostatin. The assay can be described thus: cell-based or functional assay. The source holds these as a separate data set.
Regarding B1, the “mTLL2 IC50” value is 0.139 nM.

With B3, the “mTLL2 IC50” value came out at 0.139 nM.

As to B2, the “mTLL2 IC50” value was found to be 9.22 nM.

For a further assay, the target named is T1, human pro-myostatin. Description: SPR Biacore 8K, biotin-antigen captured. In general terms: Surface plasmon resonance follows binding to a sensor surface in real time, without labels.
With B1, the Kd was determined as 0.394 nM, the koff was 0.000543 s⁻¹ and the kon came to 1.38e+06 M⁻¹ s⁻¹.

B3 displayed a Kd of 0.04 nM, a koff of 0.000112 s⁻¹ and a kon of 2.79e+06 M⁻¹ s⁻¹.

In turn, B4 had a Kd of 0.109 nM, a koff of 0.000711 s⁻¹ and a kon of 6.53e+06 M⁻¹ s⁻¹.

In turn, B5 came in with a Kd of 0.11 nM, a koff of 0.000577 s⁻¹ and a kon of 5.27e+06 M⁻¹ s⁻¹.

In turn, B6 yielded a Kd of 0.121 nM, a koff of 0.0023 s⁻¹ and a kon of 1.9e+07 M⁻¹ s⁻¹.

As to B2, the affinity, expressed as Kd, was 0.561 nM; the koff stood at 0.000122 s⁻¹; the kon is 217000 M⁻¹ s⁻¹.

A further assay concerns the target T3, murine pro-myostatin (mouse, UniProt O08689 25-376, biotinylated (in the SPR assay)).
T3 construct: also called proGDF8 (mouse); mouse pro-myostatin
The assay can be described thus: SPR Biacore 8K, biotin-antigen captured.
With B1, binding was characterised by a dissociation constant (Kd) of 0.618 nM, the koff was 0.000772 s⁻¹ and the kon is 1.25e+06 M⁻¹ s⁻¹.

The molecule B3 gave a Kd of 0.0531 nM, a koff of 0.000156 s⁻¹ and a kon of 2.93e+06 M⁻¹ s⁻¹.

The molecule B2 had a Kd of 0.748 nM, a koff of 0.000188 s⁻¹ and a kon of 251000 M⁻¹ s⁻¹.

Another assay addresses T4, cyno pro-myostatin (cynomolgus monkey, Biotinylated for capture in the SPR assay (site not stated). The native form is a disulfide-linked homodimer, partly furin-cleaved; one chain is given.).
T4 construct: also called proGDF8 (cynomolgus); cynomolgus monkey pro-myostatin
The assay can be described thus: SPR Biacore 8K, biotin-antigen captured.
As for B1, the Kd came to 0.339 nM, the koff is 0.000539 s⁻¹ and the kon turned out to be 1.59e+06 M⁻¹ s⁻¹.

B3 came in with a Kd of 0.0369 nM, an off-rate (koff) of 0.000103 s⁻¹ and a kon of 2.8e+06 M⁻¹ s⁻¹.

With B2, binding was put at a Kd of 0.601 nM, the koff came out at 0.000124 s⁻¹ and the kon was 207000 M⁻¹ s⁻¹.

Another assay addresses T1, human pro-myostatin. Description: Ab KD, summary Table 11; method and antigen not stated there.
As for B1, the affinity, expressed as Kd, was 0.683 nM. This counts as sub-nanomolar.

As for B3, the Kd turned out to be 0.04 nM.

In the case of B2, binding was put at a Kd of 3.56 nM.

The target in another assay is T1, human pro-myostatin. Description: Fab KD, summary Table 11; method and antigen not stated there.
With B7, the affinity, expressed as Kd, was 44.4 nM. That is a double-digit nanomolar value.

On to B8, for which the equilibrium dissociation constant (Kd) came out at 53.8 nM. The Kd values of the last two molecules are within 1.5-fold of each other.

As to B9, the Kd came out at 5.51 nM.

B10 came in with a Kd of 21.9 nM. Against the preceding molecule, the Kd is about 4-fold higher.

B11: the Kd is 39.5 nM.

On to B12, for which the Kd was determined as 19 nM. Against the preceding molecule, the Kd is about 2.1-fold lower.

Molecule B13 had a Kd of 23 nM. The Kd values of the last two molecules are within 1.5-fold of each other.

For the molecule B14, the Kd stood at 61.4 nM.

Molecule B15 came in with a Kd of 17.4 nM.

Regarding B16, the affinity, expressed as Kd, was 6.19 nM.

The next assay addresses human GDF-11 (human, UniProt O95390 299-407, limits assumed). The assay can be described thus: plate binding assay, OD 450 nm, one antibody concentration that is not given, on Hu-GDF-11 (method not described in the text).
For B1, the binding result is listed as “no binding”.

For the molecule B2, the binding result is listed as “no binding”.

A further assay has as its target mouse GDF-11 (mouse, UniProt Q9Z1W4 297-405, limits assumed). The assay can be described thus: plate binding assay, OD 450 nm, one antibody concentration that is not given, on Mu-GDF-11 (method not described in the text).
In the case of B1, the binding result is on record as “no binding”.

For B2, the binding result is listed as “no binding”.

A further assay addresses T2, recombinant human latent myostatin. Description: BLI (Octet Red384): streptavidin biosensors loaded with biotinylated human latent myostatin, antibody association 300 s, dissociation in PBS at pH 7.4 or pH 5.5. The procedure:
Binding was performed at pH 7.4 and dissociation at pH 5.5 in an Octet Red384@assay. Streptavidin biosensors were baselined in 1x kinetics buffer (KB) (Sartorius) for one minute, then loaded with 100 nM biotinylated human latent myostatin for five minutes, followed by another baseline step of one minute in 1x KB. Binding of test antibodies was performed for five minutes and then dissociation was performed in PBS at either pH 7.4 or pH 5.5 for five minutes. Analysis was performed using a partial fit, in which full dissociation was projected. Kd at pH 5.5 was divided by Kd at pH 7.4 to calculate pH sensitivity.
Turning to B4, the “fold difference in off-rate (Kd at pH 5.5 / Kd at pH 7.4)” value was 10.4 fold.

On to B17, for which the “fold difference in off-rate (Kd at pH 5.5 / Kd at pH 7.4)” value stood at 26 fold.

Turning to B5, the “fold difference in off-rate (Kd at pH 5.5 / Kd at pH 7.4)” value amounted to 7.9 fold.

In the case of B6, the “fold difference in off-rate (Kd at pH 5.5 / Kd at pH 7.4)” value stood at 16.3 fold.
